# In US20250282871A1, “PHARMACEUTICAL COMBINATION AND USE THEREOF” (TIANJIN LIPOGEN TECHNOLOGY CO., LTD, priority 2021, published 2025):
# Tested on: colorectal carcinoma MC38
# Experiment: Example 7.2.1: MC38 subcutaneous xenograft, marketed PD-1 inhibitors and 2′,3′-cGAMP
# Assay type: in vivo, mouse
# Details: intratumor injection; PD-1 antibody 10 mg/kg, 2′,3′-cGAMP 1 mg/kg; every other day, 3 times
# Experimental: Tumor cells were cultured and passaged, cells were collected at the logarithmic phase, and formulated into a concentration of (1.0×10^7) per milliliter of cell suspension with 0.1 ml (with a cell number of 1.0×10^6) being injected into the right flank of the mice, the tumor grew to a diameter of about 5 mm within about 10 days, and the model was successfully established, they were randomly divided into 8 groups with 8 mice per group.
# Trend of changes in body weight and tumor volume of mice, survival rate of mice, and inhibitory rate of anatomical tumor weight.
# Drug interaction coefficient: CDI(CI)=AB/A*B. AB is the ratio of the combination group of two drugs to the control group, as calculated based on the anatomical tumor weight. A or B is the ratio of single drug group to control group.
# After successfully establishing a subcutaneous xenograft tumor model of colorectal carcinoma MC38 in mice, they were randomly grouped with 6-8 mice per group and administered once every two days, a total of 3 times.
molecule,measurement,value
"Camrelizumab: marketed PD-1 monoclonal antibody (antibody, chains of the INN, looked up, V domains shown) VH: EVQLVESGGGLVQPGGSLRLSCAASGFTFSSYMMSWVRQAPGKGLEWVATISGGGANTYYPDSVKGRFTISRDNAKNSLYLQMNSLRAEDTAVYYCARQLYYFDYWGQGTTVTVSS VL: DIQMTQSPSSLSASVGDRVTITCLASQTIGTWLTWYQQKPGKAPKLLIYTATSLADGVPSRFSGSGSGTDFTLTISSLQPEDFATYYCQQVYSIPWTFGGGTKVEIK",IRTW % (tumor weight inhibitory rate),19.6%
same,Tumor Weight,1.23 g
"Tislelizumab: marketed PD-1 monoclonal antibody (antibody, chains of the INN, looked up) heavy: QVQLQESGPGLVKPSETLSLTCTVSGFSLTSYGVHWIRQPPGKGLEWIGVIYADGSTNYNPSLKSRVTISKDTSKNQVSLKLSSVTAADTAVYYCARAYGNYWYIDVWGQGTTVTVSSASTKGPSVFPLAPCSRSTSESTAALGCLVKDYFPEPVTVSWNSGALTSGVHTFPAVLQSSGLYSLSSVVTVPSSSLGTKTYTCNVDHKPSNTKVDKRVESKYGPPCPPCPAPPVAGGPSVFLFPPKPKDTLMISRTPEVTCVVVAVSQEDPEVQFNWYVDGVEVHNAKTKPREEQFNSTYRVVSVLTVVHQDWLNGKEYKCKVSNKGLPSSIEKTISKAKGQPREPQVYTLPPSQEEMTKNQVSLTCLVKGFYPSDIAVEWESNGQPENNYKTTPPVLDSDGSFFLYSKLTVDKSRWQEGNVFSCSVMHEALHNHYTQKSLSLSLG light: DIVMTQSPDSLAVSLGERATINCKSSESVSNDVAWYQQKPGQPPKLLINYAFHRFTGVPDRFSGSGYGTDFTLTISSLQAEDVAVYYCHQAYSSPYTFGQGTKLEIKRTVAAPSVFIFPPSDEQLKSGTASVVCLLNNFYPREAKVQWKVDNALQSGNSQESVTEQDSKDSTYSLSSTLTLSKADYEKHKVYACEVTHQGLSSPVTKSFNRGEC",IRTW % (tumor weight inhibitory rate),61.4%
same,Tumor Weight,0.59 g
